Source: patent US20060183887A1 (Amgen, published 2006)
Residue numbers refer to the chain shown, from its start.

Tests used:
[1] = target: T1, human epidermal growth factor receptor (EGF-r) on the surface of human carcinoma cells (A431, SW948, … (human, UniProt P00533 25-1210)); assay: inhibition of 125I-EGF binding to A431 cells (FIG. 36)
T1 construct: whole, on cells; also called surface expressed EGF-r

[2] = target: T2, soluble EGF-r purified from A431 cell membranes (Sigma, E-3641) (human, UniProt P00533 25-1210, limits assumed); assay: BIAcore, solid phase, antigen immobilized at 228 RU
T2 construct: The BIAcore methods say that either this protein or the recombinant extracellular domain of EGFr was immobilized; also called purified A431 cell membrane-derived EGFr protein
Description: Determination of affinity constants of fully human Mabs by BIAcore: Affinity measurement of purified human monoclonal antibodies, Fab fragments, or hybridoma supernatants by plasmon resonance was carried out using the BIAcore 2000 instrument, using general procedures outlined by the manufacturers.
Based upon the general procedures outlined by the manufacture, kinetic analyses of the antibodies were performed using antigens immobilized onto the sensor surface at a low density. […] The dissociation (kd or koff) and association (ka or kₒₙ) rates were determined using the software provided by the manufacturer (BIA evaluation 2.1).

[3] = target: T2, soluble EGF-r purified from A431 cell …; assay: in solution by ELISA, Scatchard analysis
Description: After incubation, 70 μl of each mixture was transferred into the wells of 96-well microtiter plates previously coated with the same monoclonal antibody (100 μl/well, at 2 μg/ml in coating buffer) and incubated for 15 min at room temperature.

[4] = target: T2, soluble EGF-r purified from A431 cell …; assay: BIAcore, solid phase, antigen immobilized at 818 RU
[5] = target: T1, human epidermal growth factor receptor …; assay: inhibition of [125I]EGF (0.1 nM) binding to A431 cells
Excerpt: The plates were washed five times, air-dried and counted in a scintillation counter.

[6] = target: T2, soluble EGF-r purified from A431 cell …; assay: solid phase (BIAcore) and solution measurements
[7] = target: T1, human epidermal growth factor receptor …; assay: inhibition of [125I]EGF binding to SW948 cells

B1: antibody secreted by the hybridoma E2.11 (antibody, human IgG2, V domains shown)
VH: VSGGSVSSGDYYWSWIRQPPGKGLEWIGHLYYSGNTNYNPSLKSRVTISLDTSKNQFSLKLSSVTAADTAVYYCARDFLTGSFFDYWGQGTLVTVSS
VL: TITCQASQDISNYLNWYQQKPGKAPKLLINDASDLETGVPSRISGSGSGTDFTFTISNLQPEDIATYYCQQYDSLPLTFGGGTKVEIRR
notes: Fully human IgG2 with a kappa light chain
B1 was tested, and the “concentration at which inhibition of EGF binding begins” value (from here on “concentration at which inhibition”) [1] was about 8 nM, the Kd [2] was 0.16 nM and the koff [2] was 0.0003 s⁻¹. The kon [2] was 1.9e+06 M⁻¹ s⁻¹ and the Kd [3] was 0.11 nM.

B2: antibody secreted by the hybridoma E2.4 (antibody, human IgG2, V domains shown)
VH: VSGGSINSGDYYWSWIRQHPGKGLEWIGSIYYSGNTFYNPSLKSRVTISLDTSKNQFSLKLSSVTAADTAVCYCARNIVTTGAFDIWGQGTMVTVSS
VL: B1 VL with S11T, N12I, D34S, S41L, I43F, N58S, S74H, E86A, R88K
notes: as for B1
B2 gave a Kd [4] of 0.035 nM, a koff [4] of 9.78e-05 s⁻¹ and a kon [4] of 2.8e+06 M⁻¹ s⁻¹. The “concentration at which inhibition” value [1] was about 8 nM and the Kd [3] was 0.11 nM.

B3: antibody secreted by the hybridoma E7.6.3 (antibody, human IgG2, V domains shown)
VH: VSGGSVSSGDYYWTWIRQSPGKGLEWIGHIYYSGNTNYNPSLKSRLTISIDTSKTQFSLKLSSVTAADTAIYYCVRDRVTGAFDIWGQGTMVTSS
VL: B1 VL with N30Y, D34N, I43F, N58S, Y68F, Q71H, Y72F, S74H, T78A, R88K
notes: Fully human IgG2 with a kappa light chain; also called E7.6.3 MAb
B3 gave an IC50 [5] of 3 nM, a Kd [6] of 0.05 nM and an IC50 [7] of 0.9 nM.

B4: antibody secreted by the hybridoma E1.1 (antibody, human IgG2, V domains shown)
VH: VSGGSINSGDYYWSWIRQHPGKGLDCIGYIYYSGSTYYNPSLKSRVTISVDTSKNQFFLKLTSVTAADTAVYYCARSTVVNPGWFDPWGQGTLVTVSS
VL: B1 VL with S11N, Y17F, L27V, N30H, D34N, V39G, I43F, N58G, D73E, R88K
notes: as for B1
B4 was tested, and the “concentration at which inhibition” value [1] was about 8 nM and the Kd [3] was 0.11 nM.
